Consider one substance from US20210393713A1.

The target of this assay is Twin-Strep-tagged LY6A, C57BL/6J variant (GPI-anchor truncated, soluble) (mouse (C57BL/6J)) (UniProt P05533). Briefly: ELISA, AAV particles on plate-bound Twin-Strep-tagged LY6A; apparent Kd from a 1:1 fit.
Sequence of Twin-Strep-tagged LY6A, C57BL/6J variant (GPI-anchor truncated, soluble) (mouse (C57BL/6J)) (P05533 27-111, change not shown): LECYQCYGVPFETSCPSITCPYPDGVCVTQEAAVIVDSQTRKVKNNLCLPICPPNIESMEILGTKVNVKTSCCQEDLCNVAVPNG

Regarding “AAV-PHP.B capsid (AAV9 variant with the TLAVPFK insert)”, the Kd turned out to be 0.07 nM.
